From paper PMC5395218, “Biochemical and structural investigations on phosphoribosylpyrophosphate synthetase from Mycobacterium smegmatis” (PLoS ONE, 2017)

Key:
[1] = target: T1, phosphoribosylpyrophosphate synthetase (MsPrsA) (Mycolicibacterium smegmatis, UniProt A0R3C8); experiment: OPRT-coupled spectrophotometric assay, dose response on purified enzyme; type: biochemical
T1 construct: gene prs; recombinant MsPrsA, hexamer
T1 sequence (A0R3C8 1-326): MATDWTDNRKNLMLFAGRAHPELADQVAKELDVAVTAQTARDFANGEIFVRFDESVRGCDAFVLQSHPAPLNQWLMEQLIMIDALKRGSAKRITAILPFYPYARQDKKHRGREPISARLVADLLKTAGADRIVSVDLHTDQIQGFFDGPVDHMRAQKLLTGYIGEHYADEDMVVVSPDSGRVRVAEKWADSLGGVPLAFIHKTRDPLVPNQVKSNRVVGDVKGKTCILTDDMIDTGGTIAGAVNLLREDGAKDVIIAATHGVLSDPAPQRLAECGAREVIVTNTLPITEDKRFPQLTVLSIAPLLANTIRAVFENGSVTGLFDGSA

purified protein = substrate: Nc1ncnc2c1ncn2[C@@H]1O[C@H](COP(=O)(O)OP(=O)(O)OP(=O)(O)O)[C@@H](O)[C@H]1O; experiment: purified protein; type: biochemical, Mycolicibacterium smegmatis; settings: Mg2+, inorganic phosphate
[2] = target: the molecule itself; experiment: SEC; analytical gel filtration on Sephacryl S200HR 16/60, MsPrsA 1 mg/ml in Tris-HCl 20mM pH 8.0, NaCl 50mM; column calibrated with Blue Dextrane, catalase, aldolase, albumin, ovoalbumin; elution volume consistent with about 221 KDa

Nc1ncnc2c1ncn2[C@@H]1O[C@H](COP(=O)(O)OP(=O)(O)O)[C@@H](O)[C@H]1O [ADP]
IC50 [1]: 174 ± 46 µM

B1: Mycobacterium smegmatis phosphoribosylpyrophosphate synthetase (PrsA) (enzyme, M. smegmatis mc2155, UniProt A0R3C8 1-326, looked up)
chain: T1 sequence (A0R3C8 1-326)
notes: Phosphoribosylpyrophosphate synthetase (PrsA) of M. smegmatis mc2155; the crystal model holds Arg9-Gly316 without Arg204-Lys213; pCold I is recalled to add an N-terminal translation enhancing element, His6 and a Factor Xa site; also called MsPrsA; M. smegmatis PrsA
K0.5 (purified protein): 0.058 ± 0.005 mM | Vmax (purified protein): 0.006 µmol/min | kcat (purified protein): 83.5 ± 4.1 s⁻¹ | kcat/Km (purified protein): 1.44e+06 ± 53800 M⁻¹ s⁻¹ | stoichiometry N [2]: 6
